Where two headings read alike, the source gives them in different places.

Data set [1] has as its target T1, Avi-mGCPII (recombinant extracellular mouse GCPII) (Mus musculus, UniProt O35409).
T1 construct: gene Folh1; extracellular domain (45-752), N-terminal biotinylated Avi-tag with TEV site, secreted from Drosophila S2 cells, streptavidin mutein purification
Description: HPLC assay of pteroyl-di-L-glutamate cleavage. The format is biochemical. To be noted: for Ki: read-out: K i (Avi-mGCPII). The text has this:
HPLC assay of pteroyl-di-L-glutamate cleavage on Avi-mGCPII (recombinant extracellular mouse GCPII)

For data set [2], the target named is T2, Avi-hGCPII (recombinant extracellular human GCPII) (Homo sapiens, UniProt Q04609).
T2 construct: gene FOLH1
Description: HPLC assay of pteroyl-di-L-glutamate cleavage. Particulars: for Ki: read-out: K i (Avi-hGCPII). The format is biochemical. From the text: HPLC assay of pteroyl-di-L-glutamate cleavage on Avi-hGCPII (recombinant extracellular human GCPII)

The test system of data set [3] is CC(=O)N[C@@H](CC(=O)O)C(=O)N[C@@H](CCC(=O)O)C(=O)O. The experiment in a line: radioenzymatic assay. It is filed as biochemical, Homo sapiens. To be noted: […] Bis-Tris propane, […] NaCl, pH […]. The text has this:
radioenzymatic assay on Avi-hGCPII (recombinant extracellular human GCPII)

Substrate in the data set “radioenzymatic assay”: CC(=O)N[C@@H](CC(=O)O)C(=O)N[C@@H](CCC(=O)O)C(=O)O
Description: radioenzymatic assay. The format is biochemical, Mus musculus. Particulars: […] Bis-Tris propane, […] NaCl, pH […]. From the text: radioenzymatic assay on Avi-mGCPII (recombinant extracellular mouse GCPII)

Substrate in the data set “HPLC assay”: Nc1nc2ncc(CNc3ccc(C(=O)N[C@@H](CCC(=O)N[C@@H](CCC(=O)O)C(=O)O)C(=O)O)cc3)nc2c(=O)[nH]1
The experiment in a line: HPLC assay. It is filed as biochemical, Mus musculus. To be noted: […] Bis-Tris propane, […] NaCl, pH […]. From the text:
HPLC assay on Avi-mGCPII (recombinant extracellular mouse GCPII)

The mark [4] stands for this setting: substrate pteroyl-di-L-glutamate ([…] final), […] Bis-Tris propane, […] NaCl, pH […] °C.

T2 sequence (Q04609 44-750 limits assumed): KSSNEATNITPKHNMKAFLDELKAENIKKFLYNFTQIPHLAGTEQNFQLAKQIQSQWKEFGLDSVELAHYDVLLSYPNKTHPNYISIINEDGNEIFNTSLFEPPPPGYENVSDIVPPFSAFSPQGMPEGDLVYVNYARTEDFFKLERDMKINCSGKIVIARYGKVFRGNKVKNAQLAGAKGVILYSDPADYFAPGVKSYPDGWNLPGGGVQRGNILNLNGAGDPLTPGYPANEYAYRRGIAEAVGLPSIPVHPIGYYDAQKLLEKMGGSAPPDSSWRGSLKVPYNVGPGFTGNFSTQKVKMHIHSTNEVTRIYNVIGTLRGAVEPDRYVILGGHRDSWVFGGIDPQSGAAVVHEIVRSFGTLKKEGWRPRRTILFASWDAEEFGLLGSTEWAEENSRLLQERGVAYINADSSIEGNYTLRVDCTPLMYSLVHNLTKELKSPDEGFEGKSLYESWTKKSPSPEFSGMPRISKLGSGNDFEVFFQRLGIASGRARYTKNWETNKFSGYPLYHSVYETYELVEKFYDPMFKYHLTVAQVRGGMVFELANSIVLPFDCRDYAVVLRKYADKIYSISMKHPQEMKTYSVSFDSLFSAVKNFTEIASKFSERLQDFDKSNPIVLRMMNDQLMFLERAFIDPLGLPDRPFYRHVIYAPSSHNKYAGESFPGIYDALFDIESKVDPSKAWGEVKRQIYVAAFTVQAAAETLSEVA

Regarding `O=C(O)CCC(CP(=O)(O)O)C(=O)O` (centres unmarked) [2-PMPA, 2‐(phosphonomethyl)pentanedioic acid], the Ki in data set [1] (setting [4]) was 0.56 ± 0.05 nM.

As to `O=C(O)CCc1ccc(O)c(CN(CCN(CC(=O)O)Cc2cc(CCC(=O)NCCCCCC(=O)NCCCC[C@H](NC(=O)N[C@@H](CCC(=O)O)C(=O)O)C(=O)O)ccc2O)CC(=O)O)c1` [DKFZ-PSMA-11], the Ki in data set [1] was found to be 0.1 ± 0.01 nM; in data set [2] (setting [4]), 0.018 ± 0.002 nM.

In the case of `N[C@@H](Cn1oc(=O)[nH]c1=O)C(=O)O` [Quisqualate], the Ki stood at 580 ± 60 nM in data set [1] and 520 ± 80 nM in data set [2].

For the molecule `CC(C)C[C@H](NC(=O)N[C@@H](CCC(=O)O)C(=O)O)C(=O)O` [ZJ-43, (S)‐2‐(3‐((S)‐1‐carboxy‐3‐methylbutyl)ureido)pentanedioic acid], the Ki in data set [1] worked out at 5.9 ± 0.9 nM.

`O=C(O)CC[C@H](NC(=O)C(O)(CC(=O)O)CC(=O)O)C(=O)O` [β-citryl-L-glutamate]: in data set [1] (setting [4]), the “K i (Avi-mGCPII) (nM)” value is listed as 24 000 ± 3000 nM. The “K i (Avi-hGCPII) (nM)” value in data set [2] (setting [4]) was 16 000 ± 5000 nM.

On to “Avi-hGCPII (recombinant extracellular human GCPII) (Homo sapiens)”, for which, in data set [3], the Km (as a rule, the concentration of substrate that gives half-maximal velocity) was determined as 0.55 ± 0.06 µM; the turnover number (kcat) – broadly, the number of substrate molecules converted per active site and unit of time at saturation – stood at 1.45 ± 0.04 s⁻¹; the kcat/Km (commonly the second-order rate constant that governs catalysis at low substrate concentration) was 2.65e+06 ± 70000 M⁻¹ s⁻¹.

B1: Avi-mGCPII (recombinant extracellular mouse GCPII) (Mus musculus) (protein)
chain: KPSNEATGNVSHSGMKKEFLHELKAENIKKFLYNFTRTPHLAGTQNNFELAKQIHDQWKEFGLDLVELSHYDVLLSYPNKTHPNYISIINEDGNEIFKTSLSEQPPPGYENISDVVPPYSAFSPQGTPEGDLVYVNYARTEDFFKLEREMKISCSGKIVIARYGKVFRGNMVKNAQLAGAKGMILYSDPADYFVPAVKSYPDGWNLPGGGVQRGNVLNLNGAGDPLTPGYPANEHAYRHELTNAVGLPSIPVHPIGYDDAQKLLEHMGGPAPPDSSWKGGLKVPYNVGPGFAGNFSTQKVKMHIHSYTKVTRIYNVIGTLKGALEPDRYVILGGHRDAWVFGGIDPQSGAAVVHEIVRSFGTLKKKGRRPRRTILFASWDAEEFGLLGSTEWAEEHSRLLQERGVAYINADSSIEGNYTLRVDCTPLMYSLVYNLTKELQSPDEGFEGKSLYDSWKEKSPSPEFIGMPRISKLGSGNDFEVFFQRLGIASGRARYTKNWKTNKVSSYPLYHSVYETYELVVKFYDPTFKYHLTVAQVRGAMVFELANSIVLPFDCQSYAVALKKYADTIYNISMKHPQEMKAYMISFDSLFSAVNNFTDVASKFNQRLQELDKSNPILLRIMNDQLMYLERAFIDPLGLPGRPFYRHIIYAPSSHNKYAGESFPGIYDALFDISSKVNASKAWNEVKRQISIATFTVQAAAETLREVA
notes: extracellular domain (45-752), N-terminal biotinylated Avi-tag with TEV site, secreted from Drosophila S2 cells, streptavidin mutein purification
For B1, in the data set “radioenzymatic assay”, the Km was 1.9 ± 0.1 µM, the kcat is 1.44 ± 0.02 s⁻¹ and the kcat/Km was found to be 770000 ± 10000 M⁻¹ s⁻¹. Further, in the data set “HPLC assay”, the Km was 0.29 ± 0.02 µM, the kcat worked out at 3.63 ± 0.09 s⁻¹ and the specificity constant (kcat/Km) came out at 1.26e+07 ± 800000 M⁻¹ s⁻¹.

The values above are taken from paper PMC5586342, “Mouse glutamate carboxypeptidase II (GCPII) has a similar enzyme activity and inhibition profile but a different tissue distribution to human GCPII” (FEBS Open Bio, 2017).
